Experimental data: publication PMC9561264

Key:
[1] = biological target: hOGG1 (human oxoguanine glycosylase 1), wildtype (human) (UniProt O15527); experiment: fluorescence polarisation; reducing conditions (5 mM DTT); 5 nM Ni-NTA AF488 labelled his6-hOGG1, unlabelled protein titrated (Myc 1.22 nM-2 uM, LSD1 1.38 nM-60 uM, hOGG1 0.24 nM-8 uM); 20 mM Tris-HCl pH 7.6, 200 mM NaCl; 25 C; single Hill fit
[2] = biological target: hOGG1 (human oxoguanine glycosylase 1), wildtype (human) (UniProt O15527); experiment: fluorescence polarisation; oxidising conditions (5 uM H2O2); 5 nM Ni-NTA AF488 labelled his6-hOGG1, unlabelled protein titrated (Myc 1.22 nM-2 uM, LSD1 1.38 nM-60 uM, hOGG1 0.24 nM-8 uM); 20 mM Tris-HCl pH 7.6, 200 mM NaCl; 25 C; single Hill fit
[3] = biological target: hOGG1 (human oxoguanine glycosylase 1), wildtype (human) (UniProt O15527); experiment: FP; reducing; conditions: domain or fragment
[4] = biological target: hOGG1 (human oxoguanine glycosylase 1), wildtype (human) (UniProt O15527); experiment: FP; oxidising; conditions: domain or fragment
[5] = biological target: hOGG1 wild type (human) (UniProt O15527); experiment: AFM; conditions: 150 nM hOGG1, 8-oxoguanine at ~50% (49.8%) of length, FP at 25°C with 5 nM labelled DNA, EMSA room temp 30 min, 15% native PAGE 0.5x TBE 4°C, interaction buffer 20 mM Tris-HCl pH 7.6, 200 mM NaCl (Fig. S12) …
hOGG1 wild type (human), sequence (O15527 whole entry): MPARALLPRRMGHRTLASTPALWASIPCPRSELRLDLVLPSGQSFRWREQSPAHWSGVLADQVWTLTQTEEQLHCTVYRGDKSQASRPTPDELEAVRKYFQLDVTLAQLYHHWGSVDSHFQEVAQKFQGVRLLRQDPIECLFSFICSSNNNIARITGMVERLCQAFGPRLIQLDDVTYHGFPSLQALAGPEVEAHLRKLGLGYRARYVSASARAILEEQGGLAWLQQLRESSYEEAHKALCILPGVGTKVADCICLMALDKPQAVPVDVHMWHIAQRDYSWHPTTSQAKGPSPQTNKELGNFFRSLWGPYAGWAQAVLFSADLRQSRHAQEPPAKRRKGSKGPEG

hOGG1 (human oxoguanine glycosylase 1), wildtype (human), sequence (O15527 whole entry, the tested form may be a part): as the sequence (O15527 whole entry) above
isolated N-terminal domain of Myc, sequence (P01106 16-158): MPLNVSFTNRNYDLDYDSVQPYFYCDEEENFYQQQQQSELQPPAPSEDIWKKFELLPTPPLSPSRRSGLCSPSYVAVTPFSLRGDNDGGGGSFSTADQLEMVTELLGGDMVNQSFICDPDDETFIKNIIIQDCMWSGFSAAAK
GST tagged full length c-Myc, sequence (P01106 whole entry): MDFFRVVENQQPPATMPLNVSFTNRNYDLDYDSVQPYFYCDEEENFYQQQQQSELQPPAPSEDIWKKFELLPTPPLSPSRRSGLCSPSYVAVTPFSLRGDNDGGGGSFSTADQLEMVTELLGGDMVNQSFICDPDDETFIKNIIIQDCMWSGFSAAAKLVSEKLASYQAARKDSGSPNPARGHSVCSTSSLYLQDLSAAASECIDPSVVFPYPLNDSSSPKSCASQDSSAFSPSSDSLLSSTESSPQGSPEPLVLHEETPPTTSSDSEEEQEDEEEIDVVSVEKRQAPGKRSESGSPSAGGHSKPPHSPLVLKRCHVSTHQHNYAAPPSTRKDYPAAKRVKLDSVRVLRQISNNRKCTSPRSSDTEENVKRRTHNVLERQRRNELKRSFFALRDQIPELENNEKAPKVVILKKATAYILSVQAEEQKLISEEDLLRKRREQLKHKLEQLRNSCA

Substance: GST tagged full length c-Myc (from UniProt P01106 1-454) (natural protein; Ni-NTA AlexaFluor 488 dye on the his6 tag (labelled copy in fluorescence polarisation); other documents disagree on this pair)
- Kd [1]: 1.05 µM
- Kd [2]: 0.662 µM

Substance: isolated N-terminal domain of Myc
- Kd [3]: 1.07 µM
- Kd [4]: 0.705 µM

Substance: oxoG 505 bp AFM substrate
- binding signal (counts/DNA at oxoG) ([5]; oxidising, specificity 368 ± 74): 0.1
- binding signal (counts/DNA at oxoG) ([5]; reducing, specificity 543 ± 37): 0.18
